# According to patent publication US20220177587A1, “METHODS AND USES OF VARIANT CD80 FUSION PROTEINS AND RELATED CONSTRUCTS” (Alpine Immune Sciences, Inc., priority 2018, published 2022):
# Residue numbers refer to the chain shown, from its start. Names may count otherwise. “And” between values parts separate entries of the source, which are not always exact repeats. Identical values can stand only once.
# B1: R29D, Y31L, Q33H, K36G, M38I, T41A, M43R, M47T, A91G, I118V, T120S, I127T, T130A, H188D (protein)
# chain: VIHVTKEVKEVATLSCGHNVSVEELAQTDILWHKEGKIVLAMRSGDTNIWPEYKNRTIFDITNNLSIVILALRPSDEGTYECVVLKYEKDGFKREHLAEVTLSVKADFPTPSISDFEVPSSNIRRITCSASGGFPEPHLSWLENGEELNAINTTVSQDPETELYAVSSKLDFNMTTNHSFMCLIKYGDLRVNQTFNWNTTKQEHFPDN
# B2: R29D, Y31L, Q33H, K36G, M38I, T41A, M43R, M47T, L70Q, D76G, A91G, S103L, I118V, T120S, I127T, T130A (protein)
# chain: B1 chain with L70Q, D76G, S103L, D188H
# B3: Y53C, L85R, K89N, A91T, F92P, K93V, R94L, I118V, T120S, I127T, T130A, K169E (protein)
# chain: VIHVTKEVKEVATLSCGHNVSVEELAQTRIYWQKEKKMVLTMMSGDMNIWPECKNRTIFDITNNLSIVILALRPSDEGTYECVVRKYENDTPVLEHLAEVTLSVKADFPTPSISDFEVPSSNIRRITCSASGGFPEPHLSWLENGEELNAINTTVSQDPETELYAVSSELDFNMTTNHSFMCLIKYGHLRVNQTFNWNTTKQEHFPDN
# B4: L70Q, A91G, I118V, T120S, T130A, K169E (protein)
# chain: B3 chain with C53Y, L70Q, R85L, N89K, T91G, P92F, V93K, L94R, T127I
# modifications: CD80 v125 ECD
# B5: T62S, E81V, L85R, K89N, A91T, F92P, K93V, R94L, I118V, T120S, T130A, K169E (protein)
# chain: B3 chain with C53Y, T62S, E81V, T127I
# B6: Y53C/L70Q/D90G/T130A/N149D/N152T/H188D (protein)
# chain: VIHVTKEVKEVATLSCGHNVSVEELAQTRIYWQKEKKMVLTMMSGDMNIWPECKNRTIFDITNNLSIVIQALRPSDEGTYECVVLKYEKGAFKREHLAEVTLSVKADFPTPSISDFEIPTSNIRRIICSASGGFPEPHLSWLENGEELDAITTTVSQDPETELYAVSSKLDFNMTTNHSFMCLIKYGDLRVNQTFNWNTTKQEHFPDN
# B7: H18L, R29D, Y31L, Q33H, K36G, M38I, T41A, M43R, M47T, E81V, L85R, K89N, A91T, F92P, K93V, R94L, E99D, T130A (protein)
# chain: VIHVTKEVKEVATLSCGLNVSVEELAQTDILWHKEGKIVLAMRSGDTNIWPEYKNRTIFDITNNLSIVILALRPSDEGTYVCVVRKYENDTPVLEHLADVTLSVKADFPTPSISDFEIPTSNIRRIICSASGGFPEPHLSWLENGEELNAINTTVSQDPETELYAVSSKLDFNMTTNHSFMCLIKYGHLRVNQTFNWNTTKQEHFPDN
# B8: H18L, R29D, Y31L, Q33H, K36G, M38I, T41A, M43R, M47T, E81V, L85R, K89N, A91T, F92P, K93V, R94L, I118V, T120S, I127T, T130A, L142S, H188D (protein)
# chain: B7 chain with D99E, I118V, T120S, I127T, L142S, H188D
# B9: R29D, Y31L, Q33H, K36G, M38I, T41A, M43R, M47T, L70Q, E81V, L85R, K89N, A91T, F92P, K93I, R94L, L97R, T130A, L148S (protein)
# chain: B7 chain with L18H, L70Q, V93I, L97R, D99E, L148S
# B10: R29D, Y31L, Q33H, K36G, M38I, T41A, M43R, M47T, I61N, E81V, L85R, K89N, A91T, F92P, K93V, R94F, V104A, I118V, T120S, I126V, T130A (protein)
# chain: B7 chain with L18H, I61N, L94F, D99E, V104A, I118V, T120S, I126V
# B11: R29D, Y31L, Q33H, K36G, M38I, T41A, M43R, M47T, E81V, L85R, K89N, A91T, F92P, K93V, R94F, I118V, T120S, T130A (protein)
# chain: B7 chain with L18H, L94F, D99E, I118V, T120S
# B12: R29D, Y31L, Q33H, K36G, M38I, T41A, M43R, M47T, T62S, E81V, L85R, K89N, A91T, F92P, K93V, R94L, I118V, T120S, T130A, K169E, T175A (protein)
# chain: B7 chain with L18H, T62S, D99E, I118V, T120S, K169E, T175A
# B13: C16S, H18L, R29D, Y31L, Q33H, K36G, M38I, T41A, M43R, M47T, E81V, L85R, K89N, A91T, F92P, K93V, R94L, T110A, I118V, H188D (protein)
# chain: B7 chain with C16S, D99E, T110A, I118V, A130T, H188D
# B14: R29D, Y31L, Q33H, K36G, M38I, T41A, M43R, M47T, E81V, L85R, K89N, A91T, F92P, K93V, R94L, S129L, H188D (protein)
# chain: B7 chain with L18H, D99E, S129L, A130T, H188D
# B15: H18L, R29D, Y31L, Q33H, K36G, M38I, T41A, M43R, M47T, E81V, L85R, K89N, A91T, F92P, K93V, R94L, F116S, T130A, H188D (protein)
# chain: B7 chain with D99E, F116S, H188D
# B16: R29D, Y31L, Q33H, K36G, M38I, T41A, M43R, M47T, L70Q, E81V, L85R, K89N, A91T, F92P, K93V, R94L, I118V, T120S, I127T, T130A (protein)
# chain: B7 chain with L18H, L70Q, D99E, I118V, T120S, I127T
# B17: R29D, Y31L, Q33H, K36G, M38I, T41A, M43R, M47T, L70Q, E81V, L85R, K89N, A91T, F92P, K93I, R94L, L97R, T130A (protein)
# chain: B7 chain with L18H, L70Q, V93I, L97R, D99E
# B18: H18L, R29D, Y31L, Q33H, K36G, M38I, T41A, M43R, M47T, L70Q, E81V, L85R, K89N, A91T, F92P, K93V, R94L, I118V, T120S, T130A, K169E (protein)
# chain: B7 chain with L70Q, D99E, I118V, T120S, K169E
# System: human pan T cells
# Experiment: Anti-CD3 coimmobilization assay, IFN-gamma
# Type: cell-based
# Conditions: Table E34; culture supernatant, 3 days
# Protocol: Costimulatory bioactivity of CD80 fusion variants was determined in anti-CD3 coimmobilization assays. 1 nM or 4 nM mouse anti-human CD3 (OKT3, Biolegends, USA) was diluted in PBS with 1 nM to 80 nM rCD80.Fc variant proteins. This mixture was added to tissue culture treated flat bottom 96-well plates (Corning, USA) overnight to facilitate adherence of the stimulatory proteins to the wells of the plate. The next day, unbound protein was washed off the plates and 100,000 purified human pan T cells (BenTech Bio, US) or human T cell clone BC3 (Astarte Biologics, USA) were added to each well in a final volume of 200 μl of Ex-Vivo 15 media (Lonza, Switzerland). Cells were cultured 3 days before harvesting culture supernatants and measuring human IFN-gamma levels with Duoset ELISA kit (R&D Systems, USA) as described above.
row,Molecule,Anti-CD3 IFN-gamma Coimmobilization Assay
1,B1,125 pg/mL
2,B2,224 pg/mL
3,B3,75 pg/mL
4,B4,115 pg/mL
5,B5,107 pg/mL
6,B6,122 pg/mL
7,B7,174 pg/mL
8,B8,143 pg/mL
9,B9,101 pg/mL
10,B10,288 pg/mL
11,B11,111 pg/mL
12,B12,114 pg/mL
13,B13,247 pg/mL
14,B14,87 pg/mL
15,B15,114 pg/mL
16,B16,162 pg/mL and 135 pg/mL
17,B17,202 pg/mL
18,B18,232 pg/mL
